Experimental data from IntAct's records for PubMed 11739401.

B1: Ras-related protein Rab-2A (Homo sapiens), P61019 (parent)
chain: MAYAYLFKYIIIGDTGVGKSCLLLQFTDKRFQPVHDLTIGVEFGARMITIDGKQIKLQIWDTAGQESFRSITRSYYRGAAGALLVYDITRRDTFNHLTTWLEDARQHSNSNMVIMLIGNKSDLESRREVKKEEGEAFAREHGLIFMETSAKTASNVEEAFINTAKEIYEKIQEGVFDINNEANGIKIGPQHAATNATHAGNQGGQQAGGGCC
partner: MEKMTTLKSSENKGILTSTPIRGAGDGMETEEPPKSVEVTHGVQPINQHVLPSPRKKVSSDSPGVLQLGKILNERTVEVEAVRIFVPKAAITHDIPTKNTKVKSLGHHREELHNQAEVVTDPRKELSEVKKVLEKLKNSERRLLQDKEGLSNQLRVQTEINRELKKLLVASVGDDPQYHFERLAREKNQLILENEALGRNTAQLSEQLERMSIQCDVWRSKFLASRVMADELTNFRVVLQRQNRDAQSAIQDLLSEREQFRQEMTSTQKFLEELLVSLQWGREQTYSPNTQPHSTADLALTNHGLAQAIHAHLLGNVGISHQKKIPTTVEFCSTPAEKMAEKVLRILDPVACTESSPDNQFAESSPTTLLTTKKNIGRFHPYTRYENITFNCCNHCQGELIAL

Variants of: B1
Settings: with go45_mouse Blzf1, Q8R2X8

Row | Variant | effect of a mutation on the interaction
1 | Q65L | increasing interaction
